Measured values from patent US20160138004A1 (Hoffmann-La Roche, published 2016).

What was measured:
[1] = biological target: T1, Thermus thermophilus SlyD-IGF-1(74-90) fusion polypeptide; assay: ELISA, clone culture supernatant
T1 construct: also called Thermo Thermophilus SlyD-IGF-1 fusion polypeptide; Thermus thermophilus-IGF-1 fusion polypeptide
T1 chain: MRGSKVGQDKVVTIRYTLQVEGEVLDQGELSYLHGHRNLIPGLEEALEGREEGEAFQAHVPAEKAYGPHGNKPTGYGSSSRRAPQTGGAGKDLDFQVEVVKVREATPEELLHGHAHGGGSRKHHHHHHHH

[2] = biological target: T1, Thermus thermophilus SlyD-IGF-1(74-90) …; assay: SPR at 25 °C, mAb captured, antigen as analyte
[3] = biological target: T2, native recombinant human IGF-1 (human, UniProt P05019 49-118); assay: SPR at 37 °C, clone culture supernatant antibody captured
T2 construct: In the ELISAs it was biotinylated and held on streptavidin plates; also called native IGF-1; native human IGF-1 (Peprotech)

[4] = biological target: T1, Thermus thermophilus SlyD-IGF-1(74-90) …; assay: as above
[5] = biological target: T2, native recombinant human IGF-1; assay: SPR kinetics at 37 °C, clone culture supernatant, IGF-1 as analyte

B1: <IGF-1>M-11.11.17 (antibody, V domains shown)
VH: QVQLQQSGAELVRPGSSVKISCKASGYAFSNLWMNWVKQRPGQGLEWIGQIYPGDGDTNYYGDFKGKATLTADSSSSTAYMQLSRLTSEDSAVYFCARIGYYGMDYWGQGTSVTVSS
VL: DVVLTQTPLSLPVNIGDEASISCKSTKSLLSSDGLTYLDWYLQKPGQSPQVLIYLVSNRFSGVPDRFSGSGSGTDFTLKISRVEAEDLGVYYCFQSNYLPTFGAGTKLELK
reactivity [1]: 2150 mE | Kd [2]: 0.01 nM | koff [2]: 1e-05 s⁻¹ | kon [2]: 710000 M⁻¹ s⁻¹ | koff [3]: 1e-05 s⁻¹ | koff [4]: 1e-05 s⁻¹ | Ka [5]: 2.2e+10 M⁻¹ | Kd [5]: 0.046 nM | koff [5]: 0.00014 s⁻¹ | kon [5]: 3.1e+06 M⁻¹ s⁻¹
